Tests used:
[1] = target: G5-TPR (Gemin5 TPR-like dimerization domain) (Homo sapiens, UniProt Q8TEQ6 807-1097); test: EMSA
[2] = target: T1, Gemin5 cleavage fragment p85, wild type, with C-terminal TAP tag (human, UniProt Q8TEQ6 845-1508); test: co-IP
T1 sequence: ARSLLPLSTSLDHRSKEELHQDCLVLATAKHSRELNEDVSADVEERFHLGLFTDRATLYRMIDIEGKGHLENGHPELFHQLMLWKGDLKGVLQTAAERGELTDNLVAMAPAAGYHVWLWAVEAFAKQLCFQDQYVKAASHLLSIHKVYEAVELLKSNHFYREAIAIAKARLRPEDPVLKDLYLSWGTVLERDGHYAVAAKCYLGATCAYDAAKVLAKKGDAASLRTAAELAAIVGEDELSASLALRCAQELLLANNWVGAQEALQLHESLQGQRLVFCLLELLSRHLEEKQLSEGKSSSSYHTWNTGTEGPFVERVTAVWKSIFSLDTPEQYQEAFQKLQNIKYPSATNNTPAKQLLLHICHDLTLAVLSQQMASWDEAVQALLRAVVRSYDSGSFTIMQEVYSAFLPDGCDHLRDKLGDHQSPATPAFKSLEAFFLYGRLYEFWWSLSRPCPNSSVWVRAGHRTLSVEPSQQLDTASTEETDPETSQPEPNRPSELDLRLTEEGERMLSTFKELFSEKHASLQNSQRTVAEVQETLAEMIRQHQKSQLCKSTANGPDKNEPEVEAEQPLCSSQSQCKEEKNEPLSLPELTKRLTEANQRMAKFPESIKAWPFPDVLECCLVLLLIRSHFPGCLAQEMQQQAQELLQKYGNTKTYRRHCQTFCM

SEC-MALS = target: the molecule itself; test: SEC-MALS
[…] = target: the molecule itself; test: […]

AATTCCCCAAATTCCAGTGTCTGGGTAAG (ssDNA) [ssDNA H1-24-s (29 nt)]
binding result [1]: no binding

B1: Gemin5, full-length endogenous protein (natural protein)
chain: MGQEPRTLPPSPNWYCARCSDAVPGGLFGFAARTSVFLVRVGPGAGESPGTPPFRVIGELVGHTERVSGFTFSHHPGQYNLCATSSDDGTVKIWDVETKTVVTEHALHQHTISTLHWSPRVKDLIVSGDEKGVVFCYWFNRNDSQHLFIEPRTIFCLTCSPHHEDLVAIGYKDGIVVIIDISKKGEVIHRLRGHDDEIHSIAWCPLPGEDCLSINQEETSEEAEITNGNAVAQAPVTKGCYLATGSKDQTIRIWSCSRGRGVMILKLPFLKRRGGGIDPTVKERLWLTLHWPSNQPTQLVSSCFGGELLQWDLTQSWRRKYTLFSASSEGQNHSRIVFNLCPLQTEDDKQLLLSTSMDRDVKCWDIATLECSWTLPSLGGFAYSLAFSSVDIGSLAIGVGDGMIRVWNTLSIKNNYDVKNFWQGVKSKVTALCWHPTKEGCLAFGTDDGKVGLYDTYSNKPPQISSTYHKKTVYTLAWGPPVPPMSLGGEGDRPSLALYSCGGEGIVLQHNPWKLSGEAFDINKLIRDTNSIKYKLPVHTEISWKADGKIMALGNEDGSIEIFQIPNLKLICTIQQHHKLVNTISWHHEHGSQPELSYLMASGSNNAVIYVHNLKTVIESSPESPVTITEPYRTLSGHTAKITSVAWSPHHDGRLVSASYDGTAQVWDALREEPLCNFRGHRGRLLCVAWSPLDPDCIYSGADDFCVHKWLTSMQDHSRPPQGKKSIELEKKRLSQPKAKPKKKKKPTLRTPVKLESIDGNEEESMKENSGPVENGVSDQEGEEQAREPELPCGLAPAVSREPVICTPVSSGFEKSKVTINNKVILLKKEPPKEKPETLIKKRKARSLLPLSTSLDHRSKEELHQDCLVLATAKHSRELNEDVSADVEERFHLGLFTDRATLYRMIDIEGKGHLENGHPELFHQLMLWKGDLKGVLQTAAERGELTDNLVAMAPAAGYHVWLWAVEAFAKQLCFQDQYVKAASHLLSIHKVYEAVELLKSNHFYREAIAIAKARLRPEDPVLKDLYLSWGTVLERDGHYAVAAKCYLGATCAYDAAKVLAKKGDAASLRTAAELAAIVGEDELSASLALRCAQELLLANNWVGAQEALQLHESLQGQRLVFCLLELLSRHLEEKQLSEGKSSSSYHTWNTGTEGPFVERVTAVWKSIFSLDTPEQYQEAFQKLQNIKYPSATNNTPAKQLLLHICHDLTLAVLSQQMASWDEAVQALLRAVVRSYDSGSFTIMQEVYSAFLPDGCDHLRDKLGDHQSPATPAFKSLEAFFLYGRLYEFWWSLSRPCPNSSVWVRAGHRTLSVEPSQQLDTASTEETDPETSQPEPNRPSELDLRLTEEGERMLSTFKELFSEKHASLQNSQRTVAEVQETLAEMIRQHQKSQLCKSTANGPDKNEPEVEAEQPLCSSQSQCKEEKNEPLSLPELTKRLTEANQRMAKFPESIKAWPFPDVLECCLVLLLIRSHFPGCLAQEMQQQAQELLQKYGNTKTYRRHCQTFCM
fold recruitment against p85-A951E [2]: 10 fold

B2: Gemin5 TPR-like domain (residues 807-1097), wild type (domain or fragment)
chain: TPVSSGFEKSKVTINNKVILLKKEPPKEKPETLIKKRKARSLLPLSTSLDHRSKEELHQDCLVLATAKHSRELNEDVSADVEERFHLGLFTDRATLYRMIDIEGKGHLENGHPELFHQLMLWKGDLKGVLQTAAERGELTDNLVAMAPAAGYHVWLWAVEAFAKQLCFQDQYVKAASHLLSIHKVYEAVELLKSNHFYREAIAIAKARLRPEDPVLKDLYLSWGTVLERDGHYAVAAKCYLGATCAYDAAKVLAKKGDAASLRTAAELAAIVGEDELSASLALRCAQELLL
stoichiometry N (SEC-MALS): 2

B3: Gemin5 TPR-like domain (residues 807-1097) A951E (domain or fragment)
chain: TPVSSGFEKSKVTINNKVILLKKEPPKEKPETLIKKRKARSLLPLSTSLDHRSKEELHQDCLVLATAKHSRELNEDVSADVEERFHLGLFTDRATLYRMIDIEGKGHLENGHPELFHQLMLWKGDLKGVLQTAAERGELTDNLVEMAPAAGYHVWLWAVEAFAKQLCFQDQYVKAASHLLSIHKVYEAVELLKSNHFYREAIAIAKARLRPEDPVLKDLYLSWGTVLERDGHYAVAAKCYLGATCAYDAAKVLAKKGDAASLRTAAELAAIVGEDELSASLALRCAQELLL
stoichiometry N ([…]): 2

B4: dsDNA H1-24-s/H1-24-as (dsDNA)
DNA 1: AATTCCCCAAATTCCAGTGTCTGGGTAAG
DNA 2: TCGACTTACCCAGACACTGGAATTTGGGG
binding result [1]: no binding
